The values that follow come from US20190328889A1.

Assay [1] has as its target Fc receptors on U937 cells (human; IFNγ-activated or non-activated) (human). Put plainly: flow cytometry competition on IFNγ-activated U937 cells; competitor 1 µM cp33; Nip228 at 0.001-5 µM.
For assay [2] the target is unchanged. Put plainly: flow cytometry competition on IFNγ-activated U937 cells; competitor 1 µM BDB; Nip228 at 0.001-5 µM. (A flow cytometer gives signals particle by particle.)

Turning to “control monoclonal human IgG1 (Nip228, MedImmune Ltd), unlabelled (antibody)”, the IgG1 concentration above which the peptide is displaced in assay [1] and in assay [2] was 10 nM each time.
